This is an account of results in paper PMC8528238 (Nature, 2021).

Test [1] has as its target T1, monomeric SARS-CoV-2 RBD (wildtype Spike RBD monomer) (SARS-CoV-2, Wuhan strain, UniProt P0DTC2). Nature of the test: SPR. (Surface plasmon resonance follows binding to a sensor surface in real time, without labels.)
Test [2] has as its target SARS-CoV-2 RBD sortase A conjugated nanoparticle (24-mer SARS-CoV-2 RBD-ferritin nanoparticle) (SARS-CoV-2, Wuhan strain, UniProt P0DTC2). The test is described as follows: BLI.
For test [3], the target named is T1, monomeric SARS-CoV-2 RBD (wildtype …). The test is described as follows: ELISA. For orientation: An ELISA detects its analyte on a solid surface through an enzyme-linked reagent.

A word on the Kd: it is the concentration at which binding is half-saturated.

B1: DH1047 antigen binding fragment (Fab) (Fab, V domains shown)
VH: QVQLVQSGAEVKKPGASVQVSCQASANTFTNHYIHWVRQAPGQGLEWMGIIYPTGGNTIYAQGFQGRVTMTRDTSLNTIYLELSSLRSEDTAVYYCARDVRVDDSWSGYDLLSGGTYFDYWGQGTLVTVSS
VL: not shown
The molecule B1 displayed a Kd in test [1] of under 0.02 nM.

B2: DH1041, SARS-CoV-2-specific ACE2-binding site-focused RBD neutralizing antibody (antibody, V domains shown)
VH: EVQLVESGGGLVQPGGSLRLSCAASGVTFSSYWMSWVRQAPGKGLEWVANIRQDGSEKYSVDSVKGRFTISRDNAKNSLYLQMNSLRAEDTAVYYCARARRADNSGYYGFHFDCWGQGTLVTVSS
VL: QSVLTQPPSVSGAPGQRVTISCTGSSSNIGAGYDVHWYQQLPGTAPKLLIYGNNNRPSGVPDRFSDSKSGTSASLAITRLQAEDEADYYCQSYDSSLSGWVFGGGTKLTVL
For B2, the binding result in test [2] and in test [3] was “binds” each time.
